The values that follow come from publication doi:10.1101/2022.06.02.493408 (bioRxiv, 2022).

In data set [1] the target is WT BetP reconstituted in amphipol A8-35 (AMP-BetP) (Corynebacterium glutamicum) (UniProt P54582). As to the kind of experiment: cryo-EM structure.
The target is the same in data set [2]. Nature of the data set: cryo-EM structure. This is another data set of the same source.
The data set “crystal structure” concerns the molecule itself. As to the kind of experiment: crystal structure.

Where two headings read alike, the source gives them in different places.

As a reminder, the stoichiometry N is the number of molecules, sites or subunits per partner or assembly. Turning to “WT BetP reconstituted in amphipol A8-35 (AMP-BetP) (from UniProt P54582 1-595) (natural protein)”, the stoichiometry N in data set [1] and in data set [2] was 3 in each case.

B1: BetP-ΔN29/E44E45E46/AAA (crystallization mutant BetP^cryst) (natural protein, Corynebacterium glutamicum, UniProt P54582 30-595, looked up)
chain: LENPTNLEGKLADAAAAIILEGEDTQASLNWSVIVPALVIVLATVVWGIGFKDSFTNFASSALSAVVDNLGWAFILFGTVFVFFIVVIAASKFGTIRLGRIDEAPEFRTVSWISMMFAAGMGIGLMFYGTTEPLTFYRNGVPGHDEHNVGVAMSTTMFHWTLHPWAIYAIVGLAIAYSTFRVGRKQLLSSAFVPLIGEKGAEGWLGKLIDILAIIATVFGTACSLGLGALQIGAGLSAANIIEDPSDWTIVGIVSVLTLAFIFSAISGVGKGIQYLSNANMVLAALLAIFVFVVGPTVSILNLLPGSIGNYLSNFFQMAGRTAMSADGTAGEWLGSWTIFYWAWWISWSPFVGMFLARISRGRSIREFILGVLLVPAGVSTVWFSIFGGTAIVFEQNGESIWGDGAAEEQLFGLLHALPGGQIMGIIAMILLGTFFITSADSASTVMGTMSQHGQLEANKWVTAAWGVATAAIGLTLLLSGGDNALSNLQNVTIVAATPFLFVVIGLMFALVKDLSNDVIYLEYREQQRFNARLARERRVHNEHRKRELAAKRRRERKASGAGKRR
For the molecule B1, the “stoichiometry N” value in “crystal structure” was 3.
